Measured values: patent US20250333541A1, “ANTIBODY, AND DRUG CONJUGATE AND USE THEREOF” (EVOPOINT BIOSCIENCES CO., LTD., priority 2022, published 2025)

T1: cynomolgus monkey TF-His (cynomolgus monkey, UniProt A0A2K5VX02 33-253)
T1 construct: range 33-252; Recombinant extracellular segment expressed in HEK293-EBNA cells and purified on a nickel column; also called c.TF-His; c; TF-his; not shown: His tag from vector pTT5-His
T1 sequence: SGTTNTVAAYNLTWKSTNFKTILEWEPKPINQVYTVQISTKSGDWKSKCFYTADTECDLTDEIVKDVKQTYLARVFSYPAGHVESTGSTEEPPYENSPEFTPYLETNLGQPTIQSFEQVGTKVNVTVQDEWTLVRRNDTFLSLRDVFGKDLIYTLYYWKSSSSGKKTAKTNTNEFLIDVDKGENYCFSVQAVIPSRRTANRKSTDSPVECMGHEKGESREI


Assays:
[1] = molecular target: T2, tissue factor (TF) on the surface of TF-positive tumor cells (human, UniProt P13726 33-295); assay: cell-based or functional assay
[2] = molecular target: T2, tissue factor (TF) on the surface of …; assay: cell-based or functional assay; remark: listed apart in the source
[3] = molecular target: T2, tissue factor (TF) on the surface of …; assay: flow cytometry on NCI-H358 cells
Method: A TF low/medium-expressing cell line NCI-H358 (source: Nanjing Cobioer, CBP60136) and a TF high-expressing cell line KYSE520 (source: Nanjing Cobioer, CBP60658) were digested with trypsin, collected by centrifugation, and washed three times with pre-cooled PBS. The cells were resuspended in 1% BSA and seeded into a 96-well sharp-bottom plate at 3×10⁵ cells/well. Each of the antibodies obtained by the gradient dilution was added, and the plate was incubated at 4° C. for 1 h. The cells were washed three times with pre-cooled PBS. 1 μL of anti-human fluorescent secondary antibody (APC anti-human IgG Fc Antibody, Biolegend, 410712) was added to each well, and the plate was incubated at 4° C. for 0.5 h. The cells were washed three times with pre-cooled PBS, resuspended, and detected by a flow cytometer (Sony, LE-SA3800GA). The data were imported into GraphPad software for curve fitting.

[4] = molecular target: T1, cynomolgus monkey TF-His; assay: ELISA, plate coated with c.TF-His
Method: (§1) The ELISA plate was coated overnight with TF antigen (h.TF-His or c.TF-His antigen) in 50 mM carbonate coating buffer (CBS coating solution) at a coating concentration of 1 μg/mL in a volume of 100 μL at 4° C. The next day, the coating solution was removed, each well was washed once with 300 μL of PBS, and 100 μL of 2% BSA (Biotopped, A6020) in PBS was added to each well for blocking at 37° C. for 2 h. The test sample was subjected to a gradient dilution with 2% BSA in PBS to establish 11 concentration points. 100 μL of each of the samples obtained by the gradient dilution was added to the plate, and the plate was incubated at 37° C. for 2 h. The supernatant was removed, and each well was washed three times with 300 μL of PBST. 100 μL of HRP-conjugated secondary antibody in 2% BSA was added to each well, and the plate was incubated at 37° C. for 1 h. […] At the end of the incubation, the secondary antibody was removed, each well was washed five times with 300 μL of PBST, and 100 μL of TMB substrate (Huzhou InnoReagents Co., Ltd., TMB-S-004) was added to each well for color development for 5-20 min. 50 μL of 2 N HCl was added to each well to stop the reaction, and OD450 nm values were read using a microplate reader (manufacturer: MD, model: SpectraMax) and imported into GraphPad software for fitting and plotting to determine the binding of the samples to TF antigenic proteins.
(§2) The assay was performed as described in the general methods. Briefly, an ELISA plate coated with a human TF-his protein or a cynomolgus monkey TF-his protein was blocked with 2% BSA at 37° C. for 2 h, and each of the antibodies obtained by the gradient dilution (starting at 10 μg/mL, 3-fold graded dilution, 11 concentration points) was added. The plate was incubated at 37° C. for 2 h.

[5] = molecular target: T3, human TF-His (human, UniProt P13726 33-251); assay: ELISA, plate coated with h.TF-His
T3 construct: range 33-251; Recombinant extracellular segment expressed in HEK293-EBNA cells and purified on a nickel column; also called h.TF-His; h; TF-his; not shown: His tag from vector pTT5-His
Method: as §1, §2

[6] = molecular target: T3, human TF-His; assay: BLI (ForteBio Octet), antibody on ProA sensor, TF-His as analyte
Method: (§3) The dynamic affinity of the humanized antibodies was determined by ForteBio. The experimental procedures were as follows: a ProA sensor (18-5010, Octet) was taken out and pre-wetted with a PBST diluent (pH 7.4) for 10 min. The antibodies to be immobilized were diluted to 5 μg/mL. […] The program was set up, the sensor plate and sample plate were put in, then the program started. The sensor was regenerated with 20 mM glycine solution (pH 1.7). The data were analyzed using Octet analysis software to derive a result graph.

[7] = molecular target: T1, cynomolgus monkey TF-His; assay: as above
Method: as §3

[8] = molecular target: T3, human TF-His; assay: antigenic protein-based ELISA, before conjugation (TF antigen species not stated)
Method: as §1

[9] = molecular target: T3, human TF-His; assay: antigenic protein-based ELISA on TF antigen (coating antigen not named, taken as human TF-His), antibody kept 14 days in human serum at 37 C
Method: as §1, with “proteins. […]” for “proteins.”

[10] = molecular target: T3, human TF-His; assay: antigenic protein-based ELISA on TF antigen (coating antigen not named, taken as human TF-His), antibody diluted in human serum, 0 days at 37 C
Method: as §1, with “proteins. […]” for “proteins.”

| Binder | IC50 (ng/mL), inhibition of FVIIa-induced IL-8 release by MDA-MB-231 cells [1] | Maximum inhibition rate (%), FVIIa-induced IL-8 release by MDA-MB-231 cells [1] | coagulation time V50 (s), MDA-MB-231 cells + human plasma, 2 mM Ca2+, 50 µg/mL antibody [2] | coagulation time V50 (s), MDA-MB-231 cells + human plasma, 5 mM Ca2+, 20 µg/mL antibody [2] | EC50 [3] | EC50 [4] | EC50 [5] | Kd [6] | koff [6] | kon [6] | Kd [7] | koff [7] | kon [7] | EC50 [8] | EC50 (read off the curve) [9] | EC50 (read off the curve) [10] |
| --- | --- | --- | --- | --- | --- | --- | --- | --- | --- | --- | --- | --- | --- | --- | --- | --- |
| 22F11H5-hz1 (antibody, human IgG1, kappa, V domains shown, Humanized IgG1 kappa) VH: QVQLVQSGAEVKQPGASVKVSCKASGYTFTTYWMHWVRQAPGQGLEWMGMIDPSDSYTTYAQKFQGRVTLTVDTSTSTAYMELSSLRSEDTAVYYCARGSGPGLFAYWGQGTLVTVSS VL: DIQETQSPSSLSASVGDRVTITCRASQDIRNYLNWYQQKPGKAPKLLIYHTSRLQSGVPSRFSGSGSGTDYTLTISSLQPEDFATYYCQQGNMPPYTFGQGTKVEIKR | 180 ng/mL | 94.3% | 1640 s | 49.4 s | 0.0671 µg/mL | 0.0114 µg/mL | 0.00858 µg/mL | 9.8 nM | 0.00296 s⁻¹ | 302000 M⁻¹ s⁻¹ | 12.7 nM | 0.00411 s⁻¹ | 324000 M⁻¹ s⁻¹ | 0.00515 µg/mL | ~0.03 µg/mL | ~0.03 µg/mL |
| 27H8H3-hz1 (antibody, human IgG1, kappa, V domains shown, Humanized IgG1 kappa) VH: QVQLVQSGAEVKKPGASVKVSCKASGYTFTTYWMHWVRQAPGQGLEWMGMIDPSDSYTSYAQKFQGRVTLTVDTSTSTAYMELSSLRSEDTAVYYCTRGSGPGLFAYWGQGTLVTVSS VL: DIQETQSPSSLSASVGDRVTITCRASQGISNYLNWYQQKPGKAPKLLIYHTSRLHSGVPSRFSGSVSGTDFTLTISSLQPEDFATYFCQQGNTLPYTFGQGTKVEIKR | 463 ng/mL | 100% | 750 s | 26.2 s | 0.0991 µg/mL | 0.0114 µg/mL | 0.00815 µg/mL | 42.5 nM | 0.0116 s⁻¹ | 273000 M⁻¹ s⁻¹ | 42.5 nM | 0.0125 s⁻¹ | 295000 M⁻¹ s⁻¹ | 0.00313 µg/mL | ~0.05 µg/mL | ~0.05 µg/mL |
